Data: article PMC5115963 (Molecular cell, 2016)

Molecular target: T1, Rrp44 D171N/D551N (S. cerevisiae, UniProt Q08162 1-1001, D171N | D551N)
T1 sequence: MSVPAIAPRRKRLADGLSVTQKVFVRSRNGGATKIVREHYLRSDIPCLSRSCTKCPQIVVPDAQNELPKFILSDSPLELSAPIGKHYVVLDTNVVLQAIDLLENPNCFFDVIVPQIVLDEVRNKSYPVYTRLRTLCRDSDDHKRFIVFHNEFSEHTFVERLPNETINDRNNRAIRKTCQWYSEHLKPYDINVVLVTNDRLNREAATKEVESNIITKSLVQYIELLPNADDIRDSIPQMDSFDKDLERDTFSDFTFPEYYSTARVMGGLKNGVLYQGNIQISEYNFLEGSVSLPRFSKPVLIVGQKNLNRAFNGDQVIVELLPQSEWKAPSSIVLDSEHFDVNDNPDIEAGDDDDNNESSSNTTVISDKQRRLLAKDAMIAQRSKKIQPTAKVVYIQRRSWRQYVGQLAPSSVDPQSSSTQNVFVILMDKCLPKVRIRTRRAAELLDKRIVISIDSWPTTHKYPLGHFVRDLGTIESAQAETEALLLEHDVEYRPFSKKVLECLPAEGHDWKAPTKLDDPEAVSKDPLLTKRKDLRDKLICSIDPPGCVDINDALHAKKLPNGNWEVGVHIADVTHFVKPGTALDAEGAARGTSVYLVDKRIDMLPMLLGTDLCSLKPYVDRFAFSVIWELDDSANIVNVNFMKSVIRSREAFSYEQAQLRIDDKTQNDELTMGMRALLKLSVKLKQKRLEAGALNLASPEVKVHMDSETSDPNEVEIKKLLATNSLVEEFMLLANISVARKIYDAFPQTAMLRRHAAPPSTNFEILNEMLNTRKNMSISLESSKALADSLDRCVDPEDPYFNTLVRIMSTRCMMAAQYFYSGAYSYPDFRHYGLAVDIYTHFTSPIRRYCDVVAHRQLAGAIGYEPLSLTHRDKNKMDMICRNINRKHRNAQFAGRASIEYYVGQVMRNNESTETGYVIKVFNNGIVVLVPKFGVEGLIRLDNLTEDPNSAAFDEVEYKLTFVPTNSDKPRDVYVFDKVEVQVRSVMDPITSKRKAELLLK
Assay: crystal structure

binding result: binds
B1: Rrp43 (natural protein, S. cerevisiae)
chain: MAESTTLETIEIHPITFPPEVLARISPELSLQRHLSLGIRPCLRKYEEFRDVAIENNTLSRYADAGNIDTKNNILGSNVLKSGKTIVITSITGGIIEETSAAIKDLDDFGEEELFEVTKEEDIIANYASVYPVVEVERGRVGACTDEEMTISQKLHDSILHSRILPKKALKVKAGVRSANEDGTFSVLYPDELEDDTLNETNLKMKRKWSYVLYAKIVVLSRTGPVFDLCWNSLMYALQSVKLPRAFIDERASDLRMTIRTRGRSATIRETYEIICDQTKSVPLMINAKNIAFASNYGIVELDPECQLQNSDNSEEEEVDIDMDKLNTVLIADLDTEAEETSIHSTISILAAPSGNYKQLTLVGGGAKITPEMIKRSLLLSRVRADDLSTRFNI
